The text below walks through data of US20210220432A1, “Application of Polypeptide in Preparation of Composition for Preventing and Treating Human Papillomavirus Infection” (GENLOCI BIOTECHNOLOGIES INC., priority 2018, published 2021).

For one assay, the target named is T1, HPV-16 L1 protein (Human papillomavirus type 16, UniProt P03101).
T1 construct: purchased Abcam ab119880
Nature of the assay: Biomolecular interaction analysis (SPR, Biacore 3000) of the polypeptide with HPV-16 L1 protein. In kind it is binding. The text has this: Biomolecular interaction analysis (BIA) is a biosensing analysis technology based on a physical optical phenomenon known as surface plasmon resonance (SPR). BIA can provide real-time observation of the interaction between biomolecules, through which, the binding specificity of two molecules can be observed, how strong the binding of the two molecules is can be known, and how many cooperators and participants there are in the binding process of biomolecules can be known.
In this experiment, BIA technology is used to observe whether there is an interaction between the polypeptide of the present invention and the HPV L1 protein, so as to explore the mechanism of inhibiting HPV virus by the polypeptide.
3. […]
(5) The coupling effect is automatically calculated by the software. In the experiment, the experimental channel is finally coupled with about 5300 RU of HPV-16 L1 Protein, where the unit RU is the unit of coupling quantity defined by the system. […]
(8) The program is designed according to the steps of equilibration, testing, equilibration, and regeneration, and the polypeptide solution of each concentration was detected. […] During the detection, the sample passes through the blank channel and the experimental channel in turn, and the data to be detected is the resultant difference of “experimental channel response value minus blank channel response value”. […]

The next assay has as its system HPV. As to conditions: literature study; HD6 at the highest cytotoxic dose; cited from earlier work.
The target of assay [1] is T2, HPV-16 L1 protein (Cat. No. ab119880, Abcam), recombinantly expressed (human papillomavirus type 16), P03101.
T2 chain: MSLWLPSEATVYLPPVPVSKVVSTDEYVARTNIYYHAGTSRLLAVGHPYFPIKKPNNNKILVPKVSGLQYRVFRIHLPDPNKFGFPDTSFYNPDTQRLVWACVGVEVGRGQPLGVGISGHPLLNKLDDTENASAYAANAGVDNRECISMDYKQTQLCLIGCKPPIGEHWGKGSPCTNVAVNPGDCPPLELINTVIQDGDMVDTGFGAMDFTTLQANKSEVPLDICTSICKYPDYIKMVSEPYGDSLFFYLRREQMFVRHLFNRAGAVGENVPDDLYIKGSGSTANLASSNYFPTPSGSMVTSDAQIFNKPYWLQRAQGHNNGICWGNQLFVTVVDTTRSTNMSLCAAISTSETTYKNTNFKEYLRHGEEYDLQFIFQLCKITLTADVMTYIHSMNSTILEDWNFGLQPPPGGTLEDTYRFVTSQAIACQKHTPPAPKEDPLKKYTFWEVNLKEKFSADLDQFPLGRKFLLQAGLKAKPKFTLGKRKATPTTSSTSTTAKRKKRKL
Nature of the assay: SPR, Biacore 3000, HPV-16 L1 amine-coupled on chip, polypeptide as analyte.

No end group written: not given here.

On HPV-16 L1 protein (KD, Affinity constant, SPR, kinetic analysis, HPV-16 L1 protein), MGRFKRFRKKFKKLFKKLS [The polypeptide] gave a dissociation constant (Kd) of 0.782 nM. Moreover, the kon at HPV-16 L1 protein (read-out: ka, Binding constant) was determined as 2.35e+06 M⁻¹ s⁻¹.

For “HD6: human α-defensin secreted by human Paneth cells (AFTCHCRRSCYSTEYSYGTCTVMGINHRFCCL; ends and bridges not checked; cysteine pairing not given here; UniProt Q01524 69-100, looked up) [reference compound]”, in the assay with HPV, the “Activity against HPV” value is “inactive”.

On to MGRFKRFRKKFKKLFKKLS (modifications not checked) [the polypeptide of the present invention (antimicrobial polypeptide, SEQ ID NO: 1)], for which, in assay [1], the dissociation constant Kd was found to be 0.782 nM, the off-rate (koff) is 0.00184 s⁻¹ and the kon was determined as 2.35e+06 M⁻¹ s⁻¹.

B1: HD5: human α-defensin secreted by human Paneth cells (peptide, UniProt Q01523 20-94, looked up)
Defensin alpha 5: ESLQERADEATTQKQSGEDNQDLAISFAGNGLSALRTSGSQARATCYCRTGRCATRESLSGVCEISGRLYRLCCR
modifications: Defensin-5
notes: human α-defensin secreted by human Paneth cells
On to B1, for which the “Activity against HPV” value in the assay with HPV is reported as “inhibiting HPV activity”.
